Data: PMC11063343

Target: SARS-CoV-2 S1 spike domain
Assay: SPR
Details: 2.5 µM SARS-CoV-2-S1; parent: est. 450; read off a plot

cellugyrin N-Term peptide Y6A; K10A; F15A
response: 45 RU
